Biological target: HuMCP-1-His6 Mutant-6 (66D → 66K) (human) (UniProt P13500)
Assay: Biacore, CNTO 888 captured, MCP-1-His6 in solution

HuMCP-1-His6 Mutant-6 (66D → 66K) (human), sequence (P13500 other isoform, or with tags, fused parts or gaps mutant, form in doubt): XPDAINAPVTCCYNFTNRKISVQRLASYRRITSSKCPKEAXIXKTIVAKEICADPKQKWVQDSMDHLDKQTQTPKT

Kd: 0.037 nM
koff: 0.000186 s⁻¹
kon: 5.09e+06 M⁻¹ s⁻¹
Substance: CNTO 888 (antibody)
